Drawing on patent US20230212554A1, this text covers EC50 for one substance.

Experiment [1] deals with NP of B/Brisbane/60/2008(fluB) (influenza B virus B/Brisbane/60/2008). The experiment in a line: ELISA on virus-infected fixed MDCK cells.
Experiment [2] has as its target NPB1 (influenza B virus B/Houston/B720/2004) (UniProt O36433). The experiment in a line: ELISA on recombinant NP.

On to ab47876 (antibody), for which the EC50 in experiment [1] worked out at 2.06 nM; in experiment [2], 0.13 nM.
